The record followed here is publication PMC10997794, “Seeding the meiotic DNA break machinery and initiating recombination on chromosome axes” (Nature Communications, 2024).

This experiment has as its target T1, SUMO-His tagged HORMAD1 HORMA (residues 1-235) (mouse, UniProt Q9D5T7 1-235).
T1 construct: HORMAD1, mouse, HORMA domain, amino acids 1-235, from codon-optimized synthetic DNA; also called the HORMA domain of HORMAD1; source: E. coli BL21(DE3), purified (Talon, ion exchange, SEC); not shown: SUMO, N-terminal, kept; His, N-terminal, kept
T1 sequence (looked up): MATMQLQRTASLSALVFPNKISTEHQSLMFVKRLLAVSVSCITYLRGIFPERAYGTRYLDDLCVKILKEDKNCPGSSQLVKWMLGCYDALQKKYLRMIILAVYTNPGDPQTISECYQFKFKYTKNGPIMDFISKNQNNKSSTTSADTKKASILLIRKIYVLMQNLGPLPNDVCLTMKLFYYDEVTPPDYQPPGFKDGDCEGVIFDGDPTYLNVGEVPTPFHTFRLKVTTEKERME
The experiment can be described thus: pull-down; amylose pull-down; MBP-tagged IHO1 truncations as baits at 1 µM with 12 µM SUMO-His HORMAD1 HORMA; 20 mM HEPES pH 7.5, 100 mM NaCl, 5% glycerol, 1 mM TCEP, 0.1% Tween20; 8 °C; Coomassie and immunoblot. Particulars: both partners purified.

B1: MBP-tagged IHO1 truncation, residues 359-574 (domain or fragment, mouse, UniProt Q6PDM4 359-574, looked up)
chain: KNWVMTTRSVSNHFSNLPSQRAGNGQGLMAQGASQRDVSKFEARVKNACPEYGPQSMCSFDSLEQSATEQKGRPCRKRRRGKKQQPQRSKRGGLLDRKQGQTSKAACAFIARHHCPQSPVCDPQGPLICWLTPRSSTKSTCHILGGTGETSQTARAAQGNLVQHSQRSSTDSSSQGDQQINWFSDLSLENLEPPQCKKGGTNLLCDPDFDSSDDNF
notes: The MBP tag is 3C HRV cleavable but was kept for the amylose pull-down; source: High Five insect cells (baculovirus), purified (MBP-trap, Resource Q, Superdex200); not shown: MBP, N-terminal, kept
Take B1: the binding result was “binds”.
